Experimental data as given in the supplement of paper PMC10899765.

Assays:
Details in all cases: 20 nM; 72 h
MCF10A [1] = test: 5+ nucleoli phenotype percent effect (relative to siNT 0% and siKIF11 100%); higher = more cells with five or more nucleoli
Description: (§1)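 After 72 h, cells were fixed and stained with Hoechst and anti-fibrillarin, and nucleoli per nucleus were counted with CellProfiler. Values are plate-adjusted percent effect for the one-nucleolus and 5+ nucleoli phenotypes, normalised to siNT (0%) and to the positive controls siNOL11 or siKIF11 (100%), as the mean of biological triplicates. Percent viability is the nuclei count relative to siNT.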

MCF10A [2] = test: one-nucleolus phenotype percent effect (relative to siNT 0% and siNOL11 100%); higher = more cells with one nucleolus (ribosome biogenesis inhibition)
Description: as §1

MCF10A [3] = test: percent viability (nuclei count relative to siNT); higher = more viable cells
Description: as §1

Row | Sequence | 5+ nucleoli phenotype percent effect (MCF10A [1]) [%] | one-nucleolus phenotype percent effect (MCF10A [2]) [%] | percent viability (MCF10A [3]) [%]
1 | AUGGCAUCGUCCCCUGGUGGCU [hsa-miR-4642] | -4.74 | 16.6 | 31.3
2 | AGGGACCUGAGUGUCUAAG [hsa-miR-3649] | -0.628 | 9.08 | 71
3 | UGAGAAGGCACAGCUUGCACGUGA [hsa-miR-6770-5p] | -3.61 | 34.3 | 36.9
4 | ACCACUGACCGUUGACUGUACC [hsa-miR-181a-2-3p] | 12.6 | -14.1 | 120
5 | UAGGGAUGGGAGGCCAGGAUGA [hsa-miR-6757-5p] | 2.44 | 3.26 | 41.1
6 | GACUGACACCUCUUUGGGUGAA [hsa-miR-888-3p] | 8.85 | -18.1 | 84.1
7 | GCAGAUCAGGACUGUAACUCACC [hsa-miR-1288-5p] | 31.1 | -14.5 | 48.5
8 | ACUCGGCUGCGGUGGACAAGU [hsa-miR-4638-5p] | -4.89 | 3.97 | 39.5
9 | CACGGCAAAAGAAACAAUCCA [hsa-miR-4445-3p] | 25.7 | -16.4 | 52.2
10 | CAUGGUUCUGUCAAGCACCGCG [hsa-miR-218-2-3p] | 7.58 | 12.5 | 68
11 | AAACUCUACUUGUCCUUCUGAGU [hsa-miR-618] | -16.4 | 10.9 | 46.5
12 | AGAGGUAGUAGGUUGCAUAGUU [hsa-let-7d-5p] | 30.8 | -18.5 | 28.7
13 | CUUCCGGUCUGUGAGCCCCGUC [hsa-miR-4664-3p] | -1.01 | 14.5 | 36.8
14 | AUCCUAGUCACGGCACCA [hsa-miR-7975] | -29.1 | 12.9 | 43.7
15 | AGCUGUAAUUAGUCAGUUUUCU [hsa-miR-1537-5p] | 31.8 | -20.9 | 117
16 | UCUGGCCUUGACUUGACUCUUU [hsa-miR-3922-3p] | 6.7 | -2.7 | 35.7
17 | AUCCUCUUUCGUCCUUCCCACU [hsa-miR-6881-3p] | -36.4 | 22.7 | 49.2
18 | GUGCGGAACGCUGGCCGGGGCG [hsa-miR-6850-5p] | -19.5 | 5.11 | 45.3
19 | UUGAAAGGCUAUUUCUUGGUC [hsa-miR-488-3p] | -44.7 | 39.9 | 36.8
20 | ACUGGACUUGGAGUCAGGA [hsa-miR-378e] | -3.63 | 11.5 | 26.4
21 | ACUCAGUCAUGGUCAUU [hsa-miR-4264] | 26.3 | -7.28 | 95.1
22 | GAUGAGCUCAUUGUAAUAUGAG [hsa-miR-556-5p] | 8.79 | -2.48 | 111
23 | AUUCUUCCUGCCCUGGCUCCAU [hsa-miR-6875-3p] | -0.842 | -4.69 | 29.5

Row | Sequence | 5+ nucleoli phenotype percent effect (MCF10A [1]) [%] | one-nucleolus phenotype percent effect (MCF10A [2]) [%] | percent viability (MCF10A [3]) [%]
24 | AACACACCUAUUCAAGGAUUCA [hsa-miR-362-3p] | 30.7 | -7.86 | 47.7
25 | GCUGGUGCAAAAGUAAUGGCGG [hsa-miR-548q] | -16.7 | 46 | 30.5
26 | CCUCUUCCCCUUGUCUCUCCAG [hsa-miR-1236-3p] | 14.8 | -6.25 | 76.4
27 | UGCAACGAACCUGAGCCACUGA [hsa-miR-891a] | 1.67 | -1.85 | 57.7
28 | GAAAGUGCUUCCUUUUAGAGGC [hsa-miR-526b-3p] | 57.2 | -23.4 | 105
29 | GCCUGCUGGGGUGGAACCUGGU [hsa-miR-370] | -25.5 | 12.5 | 45.3
30 | AGAGGUAUAGGGCAUGGGAA [hsa-miR-202-3p] | 3.86 | 10.1 | 42.3
31 | CUUGGUUCAGGGAGGGUCCCCA [hsa-miR-659-3p] | -6.48 | 37.6 | 34.6
32 | ACCAGGGCCAGCAGGGAAUGU [hsa-miR-6837-5p] | -15 | 33.6 | 19.9
33 | AAAAGUAACUGCGGUUUUUGCCU [hsa-miR-548w] | 56.1 | -28.5 | 77.2
34 | AAUCCUUUGUCCCUGGGUGAGA [hsa-miR-501-5p] | -22.9 | 22.1 | 33.2
35 | UCAAUCACUUGGUAAUUGCUGU [hsa-miR-4705] | 38.7 | -19.5 | 53.1
36 | GUGGUUAUCCCUGCUGUGUUCG [hsa-miR-487a-5p] | 24.8 | -14.4 | 42
37 | UCAGGCCUCUUUCUACCUU [hsa-miR-4650-5p] | 12.7 | -4.86 | 19.7
38 | GCUGACAGCAGGGCUGGCCGCU [hsa-miR-4526] | 16.9 | -0.679 | 59.2
39 | AUGCUACUCGGAAAUCCCACUGA [hsa-miR-5089-3p] | -30.6 | 12.4 | 47.3
40 | CUCUAGAGGGAAGCGCUUUCUG [hsa-miR-522-5p] | 0.209 | -5.68 | 40.6
41 | UCAAGUAGUUUCAUGAUAAAGG [hsa-miR-5697] | 12.5 | -14.6 | 118
42 | CACACACUGCAAUUACUUUUGC [hsa-miR-603] | 19.5 | -5.16 | 60.9
43 | AGUUGCCUUUUUGUUCCCAUGC [hsa-miR-4423-5p] | -0.303 | -22.1 | 44.9
44 | CUGAAGUGAUGUGUAACUGAUCAG [hsa-miR-573] | -8.65 | -6.66 | 69
45 | AAUAAUACAUGGUUGAUCUUU [hsa-miR-369-3p] | 11.7 | -9.36 | 162
